Legend:
[1] = test system: HUVEC cells; experiment: γH2AX DNA damage response in HUVEC cells (Western blot); assay type: cell-based; details: Dkk1 100 ng/ml
Experimental: (2) The transfection system of a 3.5 cm petri dish was prepared as follows: 1 μl of siRNA Oligo/Red (concentration of the original solution was 20 μM) was added to an EP tube containing 250 μl of pure Opti-MEM and mixed, and 1.5 μl of RNAiMAX (transfection Reagent) was added to the flow tube containing 250 μl of pure Opti-MEM and mixed, and then all the liquid in the EP tube was added to the flow tube and mixed, and allowed to stand at room temperature for 15 min.
(3) The prepared transfection system was added to a 3.5 cm culture dish, and the cells were cultured for 24-48 h, then the samples were collected and the total cell protein was extracted, and the knockdown effect of the gene was identified by Western Blotting.
(3) Add 150 μl of total protein lysate to each cell sample to make the lysate fully contact with the cells, scrape off the cell lysate with a scraper, collect it into a pre-cooled EP tube, and take an ice bath for 15 min.
(§1) Protein electrophoresis gels are double-layered gels, including an upper stacking gel and a lower separating gel. The concentration of the stacking gel is 5%, and the concentration of the separating gel is determined according to the molecular weight of the target protein. In this study, large molecular weight proteins (LRP5/6, β-catenin, β-arrestin1/2) used 8%-5% double-layer gel, and small molecular weight proteins (γH2AX, p53, p21, Bcl-2, Bax, Cleaved Caspase-3) used 12%-5% double-layer gel. In addition, the number of wells (10 wells or 15 wells) and thickness (1 mm or 1.5 mm) of the preparation gel were selected according to the number and volume of protein samples loaded. The gel formulation is shown in the experimental material section, and the preparation steps are as follows: […]

[2] = test system: LRP6 and Kremen2; experiment: Intramuscular injection of Dkk1, Western blot of membrane LRP6 and Kremen2; assay type: in vivo, mouse; details: Dkk1 alone, lower limbs of normal mice
Experimental: Wild-type mice and β-arrestin2+/−KO mice were injected into the left quadriceps (0.25 mg/kg) and an equal volume of PBS was injected into the right leg as controls. MDC (10 mg/kg), IGFBP-4/H95P (1.7 mg/kg) or PBS were injected in combination with Dkk1 as a control to observe the effects of drugs on Dkk1-induced signal transduction. After 48 hours, the mice were sacrificed, and the left and right quadriceps were taken to measure the […].
Membrane proteins were extracted according to the instructions of Membrane Protein Extraction Kit (Sangon Biotech, China). Western blot analysis omitted. Antibodies for WB analysis were purchased from Cell Signaling Technology and Proteintech.

[3] = test system: wild-type mice heart; experiment: Local injection of Dkk1 protein into the heart combined with MDC or BIM-46187; assay type: in vivo, mouse
Experimental: In the experiment of local injection of Dkk1 purified protein into the heart combined with MDC intervention, 10-week-old wild-type male mice were selected, the left chest was depilated, and intraperitoneal injection of MDC (diluted in sterile PBS, 10 mg/kg) or the corresponding volume of DMSO (diluted in sterile PBS) and injected at the same time every day thereafter. After 1 h of MDC intervention, cardiac Dkk1 protein injection was performed. The mice were given continuous inhalation anesthesia with 1% isoflurane and oxygenated with a ventilator, and then the fourth intercostal space near the sternum was opened to expose the heart. Using a 200 μl microsyringe, Dkk1 (10 μg of Dkk1 per heart, dissolved in 30 μl PBS) or an equal volume of PBS was injected locally at three sites in the heart. Of these, two sites are on the border around the left ventricle, and one site enters the myocardium of the left ventricle. After the injection, the wound was sutured, the anesthesia was removed, and the mice were awake. After MDC was continuously intervened for 2 days, the mice were anesthetized and the materials were collected.
In addition to injecting Dkk1 protein alone into the heart, we also need to perform experiments of local injection of Dkk1 combined with BIM-46187 into mouse hearts. According to the experimental grouping, it was divided into cardiac injections of four different solutions, including PBS, Dkk1, BIM-46187, and a mixture of Dkk1 and BIM-46187. The dosage of Dkk1 per heart is 10 μg, and the dosage of BIM-46187 is 2.4 ng, diluted with 30 μl PBS and then injected into the heart. The specific operation steps are the same as above. After the injection, the wound was sutured, the anesthesia was removed, and the mice were awake. Two days after the injection, the mice were anesthetized and the materials were collected.

[4] = test system: GPCR signaling pathways and cachexia-related pathways; experiment: RNA-Seq analysis of quadriceps femoris; assay type: in vivo, mouse; details: direct intramuscular injection of Dkk1 protein into the lower limbs
Experimental: Total RNA was extracted using Trizol kit (Lige technology), RNA sequencing library was constructed from the extracted RNA using Illlumina library preparation protocol, RNA-seq was performed on Illlumina HiSeq4000 platform, using two-terminal protocol, the length of both regions was 150 bp. Sequencing reads were aligned to annotated mouse transcripts (mm10) using hisat2 (v2.1.0). Using GFOLD (v1.1.4) to calculate the gene expression level and has found differentially expressed genes. The parameters are as follows: GFOLD value≠0, and the changing value of the two samples is ≥1.35. The RNA-seq data collector GSE121873 was uploaded to the gene expression comprehensive database. KEGG pathway analysis was performed on the defined genes.

[5] = test system: β-arrestin1/2; experiment: β-arrestin1/2 translocation in HUVEC cells (Western blot); assay type: cell-based; details: Dkk1 stimulation alone
Experimental: (§2) (5) Add 100 μl (cell) or 200 μl (tissue) A solution to each sample, and resuspend the cell pellet with a pipette to completely disperse the pellet. The tissue pellet should be fully homogenized on ice with a homogenizer, and the ice bath should be used for 15 min.
(§3) (10) Add 50 μl (cells) or 100 μl (tissue) B solution to each sample, resuspend the pellet in Vortex at the highest speed for 10 s, ice bath for 10 min, and repeat twice to fully extract membrane proteins.
as §1

[6] = test system: CT26 tumor-bearing mice; experiment: Survival of CT26 tumor-bearing mice (Kaplan-Meier); details: mouse, in vivo, ip
[7] = test system: LRP5/6; experiment: Membrane LRP5/6 endocytosis and nuclear β-catenin in HUVEC cells (Western blot); assay type: cell-based
Experimental: as §2, §3
(11) Aspirate the residual supernatant completely, and add 50 μl of nuclear protein extract to each sample.
as §1

B1: Dkk1: recombinant mouse Dkk1 protein purchased from Genscript; secreted protein inducing LRP5/6 endocytosis (protein)
chain: TLNSVLINSNAIKNLPPPLGGAGGQPGSAVSVAPGVLYEGGNKYQTLDNYQPYPCAEDEECGSDEYCSSPSRGAAGVGGVQICLACRKRRKRCMRHAMCCPGNYCKNGICMPSDHSHFPRGEIEESIIENLGNDHNAAAGDGYPRRTTLTSKIYHTKGQEGSVCLRSSDCAAGLCCARHFWSKICKPVLKEGQVCTKHKRKGSHGLEIFQRCYCGEGLACRIQKDHHQASNSSRLHTCQRH
- time of peak γH2AX activation [1]: 15 min
- time to significant γH2AX activation [1]: ≤ 5 min
- membrane LRP6 and Kremen2 after intramuscular injection of Dkk1 [2]: causes the endocytosis of LRP6 and Kremen2 on the membrane
- cardiac membrane LRP5/6, γH2AX, p53, p21 and β-catenin signaling ([3]; Dkk1 purified protein injected into myocardium, alone): directly induce the down-regulation of LRP5/6 and the up-regulation of γH2AX, p53 and p21 on the cardiac membrane without affecting β-catenin signaling
- cardiac β-arrestin1/2 translocation ([3]; direct injection of Dkk1 into the heart, alone): induces down-regulation of membrane β-arrestin1/2 and plasma β-arrestin1/2 and nuclear β-arrestin1 are up-regulated
- translocation of insulin receptors in cardiac cells ([3]; direct injection of Dkk1 protein): do not undergo translocation changes
- activation of GPCR signaling pathways and cachexia-related pathways [4]: immediately led to the activation of GPCR signaling pathways and cachexia-related pathways
- β-arrestin1/2 translocation (cytoplasm / cell membrane) [5]: rapidly up-regulate β-arrestin1/2 in HUVEC cytoplasm and down-regulate β-arrestin1/2 on the cell membrane
- survival of tumor-bearing mice [6]: significantly shorten the survival period of tumor-bearing mice
- time after which nuclear β-catenin is down-regulated ([7]; Dkk1 100 ng/ml): 60 min
- time from which endocytosis of LRP5 on the cell membrane is induced ([7]; Dkk1 100 ng/ml): 15 min
- time from which endocytosis of LRP6 on the cell membrane is induced ([7]; Dkk1 100 ng/ml): 5 min
- nuclear β-catenin expression within 30 min ([7]; higher doses of Dkk1): does not down-regulate nuclear β-catenin expression

From patent US20220349876A1, “USE OF DKK1 INHIBITOR IN PREVENTION AND/OR TREATMENT OF TUMOR CACHEXIA AND DISEASES ASSOCIATED WITH DIABETES” (SHANGHAI DONGTSU BIOSCIENCES CO., LTD., priority 2019, published 2022)
